Reference: article doi:10.1101/2023.08.19.553944
Where a chain is given by its changes, count along the chain named. Like-named read-outs stand apart in the source and are kept apart here.

B1: U7/SPL (structured_RNA)
RNA: CAGUGUUACAGCUCUUUUAGAAUUUUUGGAGUAGGCUUUCUGGCUUUUUACCGGAAAGCCCCUCUUAUG
B2: U7/PU (structured_RNA)
RNA: B1 RNA with C12G, U13A, C14G, U15A, U26G, G28C, G29U
B3: U7/2xGA (structured_RNA)
RNA: B1 RNA with A19G, G20A, U26G, G28C, G29U, A30G, G31A
B4: U7/2xMut (structured_RNA)
RNA: B1 RNA with C12G, U13A, C14G, U15A

Columns and labels:
Experiment in all cases: EMSA
[1] = target: PTBP2 (TnT) (UniProt Q9UKA9 1-531)
[2] = target: GST-PTBP1 (UniProt P26599 1-557)
[3] = target: T1, 5xH-PTBP1 (UniProt P26599 1-557)
[4] = target: hnRNP A1 (TnT) (UniProt P09651-2 1-320)
[5] = target: GST-hnRNP A1 (UniProt P09651-2 1-320)
[6] = target: T1, 5xH-PTBP1; remark: listed apart in the source
[7] = target: GST-PTBP2 (UniProt Q9UKA9 1-531)
Chain of GST-PTBP2 (Q9UKA9 whole entry): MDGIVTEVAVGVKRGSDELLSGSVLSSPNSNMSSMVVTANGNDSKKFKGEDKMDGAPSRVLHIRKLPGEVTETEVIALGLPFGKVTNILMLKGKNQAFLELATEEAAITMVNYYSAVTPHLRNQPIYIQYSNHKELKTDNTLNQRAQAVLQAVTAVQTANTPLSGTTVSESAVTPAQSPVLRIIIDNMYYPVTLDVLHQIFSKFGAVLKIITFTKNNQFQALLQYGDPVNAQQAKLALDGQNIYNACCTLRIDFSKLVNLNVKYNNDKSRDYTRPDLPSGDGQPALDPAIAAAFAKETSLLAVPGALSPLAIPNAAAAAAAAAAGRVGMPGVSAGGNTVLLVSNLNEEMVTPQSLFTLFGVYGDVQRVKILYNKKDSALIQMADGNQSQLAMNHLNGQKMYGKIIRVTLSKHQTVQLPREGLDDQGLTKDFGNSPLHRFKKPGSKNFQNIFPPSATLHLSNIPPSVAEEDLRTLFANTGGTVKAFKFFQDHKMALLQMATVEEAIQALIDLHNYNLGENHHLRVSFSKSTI

T1 sequence (P26599 whole entry): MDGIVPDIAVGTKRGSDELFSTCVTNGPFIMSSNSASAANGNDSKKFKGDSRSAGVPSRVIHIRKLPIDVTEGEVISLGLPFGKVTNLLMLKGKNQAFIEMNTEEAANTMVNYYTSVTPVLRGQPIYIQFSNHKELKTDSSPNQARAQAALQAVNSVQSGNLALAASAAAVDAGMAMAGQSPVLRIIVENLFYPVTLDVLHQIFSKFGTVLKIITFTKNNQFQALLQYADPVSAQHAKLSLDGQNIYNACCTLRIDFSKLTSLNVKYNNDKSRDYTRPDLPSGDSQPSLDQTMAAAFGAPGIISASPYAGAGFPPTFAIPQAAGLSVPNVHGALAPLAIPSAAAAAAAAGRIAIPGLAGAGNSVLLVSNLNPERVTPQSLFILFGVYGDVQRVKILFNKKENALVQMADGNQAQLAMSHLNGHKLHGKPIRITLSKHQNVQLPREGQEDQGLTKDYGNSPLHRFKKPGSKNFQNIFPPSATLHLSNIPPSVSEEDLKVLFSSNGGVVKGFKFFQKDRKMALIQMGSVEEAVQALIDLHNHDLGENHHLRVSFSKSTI
Chain of GST-PTBP1 (P26599 whole entry): as above
Chain of PTBP2 (TnT) (Q9UKA9 whole entry): as the sequence (Q9UKA9 whole entry) above

Row | Binder | binding result [1] | binding result [2] | binding result [3] | binding result [4] | binding result [5] | binding result [6] | binding result [7]
1 | B1 | no binding | binds | binds |  |  |  | 
2 | B2 |  | binds | binds |  |  |  | 
3 | B3 |  |  |  | no binding | no binding | binds | 
4 | B4 |  |  |  | binds |  |  | no binding
